US20220056137A1 (GIGAGEN, published 2022)

Assays:
[1] = molecular target: T1, PD-L1 expressed on CHO cells (human, UniProt Q9NZQ7 19-290); experiment: cell-based or functional assay
[2] = molecular target: T2, human PD-L1 protein (soluble) (human, UniProt Q9NZQ7 19-239); experiment: SPR, mAb captured on anti-human IgG Fc, PD-L1 as analyte;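 on koff: array SPR with mAb supernatants captured at several densities, PD-L1 injected for 5 min then 15 min dissociation, non-regenerative kinetic series, double-referenced against interspot surface and blank injection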;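 on kon: array SPR with mAb supernatants captured at several densities, PD-L1 injected for 5 min then 15 min dissociation, non-regenerative kinetic series, double-referenced against interspot surface and blank injection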
T2 construct: also called PD-L1 (R&D Systems); His-tagged PD-L1 protein
Method: (§1) The surface was then deactivated with 1 M ethanolamine pH 8.5 (Carterra Inc.). Running buffer used for the lawn immobilization was HBS-EPC (10 mM HEPES, 150 mM NaCl, 3 mM EDTA, 0.05% Tween 20, pH 7.4; Teknova).
(§2) The sensor chip was then transferred to a continuous flow microspotter (CFM; Carterra Inc.) for array capturing. The mAb supernatants were diluted 50-fold (3-10 mg/mL final concentration) into HBS-EPC with 1 mg/mL BSA. The samples were each captured twice with 15-minute and 4-minute capture steps on the first and second prints, respectively, to create multiple densities, using a 65 mL/min flow rate. The running buffer in the CFM was also HBS-EPC.
(§3) Next, the sensor chip was loaded onto an SPR reader (MX-96 system; Ibis Technologies) for the kinetic analysis. […] PD-L1 injections were 5 minutes with a 15-minute dissociation at 8 mL/second in a non-regenerative kinetic series. An injection of the goat anti-Human IgG Fc capture antibody at 75 mg/mL was injected at the end of the series to verify the capture level of each mAb. Binding data was double referenced by subtracting an interspot surface and a blank injection and analyzed for ka (on-rate), kd (off-rate), and KD (affinity) using the Kinetic Interaction Tool software (Carterra Inc.).

[3] = molecular target: T2, human PD-L1 protein (soluble); experiment: as above; remark: listed apart in the source
Method: as §1, §2, §3

[4] = molecular target: T3, cyno PD-L1 (cyno); experiment: BLI (Octet), antibody on AHC biosensor, cyno PD-L1 as analyte
T3 construct: Soluble analyte in BLI
Method: (§4) For BLI, antibodies were loaded onto an Anti-Human IgG Fc (AHC) biosensor using the Octet Red96 system (ForteBio). Loaded biosensors were dipped into antigen dilutions beginning at 300 nM, with 6 serial dilutions at 1:3. Kinetic analysis was performed using a 1:1 binding model and global fitting.

[5] = molecular target: T4, rhPD-L1-Fc (human, UniProt Q9NZQ7 19-239, limits assumed); experiment: competition ELISA: plate-bound rhPD-L1-Fc, antibody titrated, competitor rhCD80-His detected
T4 construct: Recombinant human PD-L1-Fc coated on ELISA plates; not shown: Fc part

[6] = molecular target: T2, human PD-L1 protein (soluble); experiment: BLI (Octet), antibody on AHC biosensor, PD-L1 as analyte
Method: as §4

[7] = molecular target: T2, human PD-L1 protein (soluble); experiment: as above; remark: listed apart in the source
Method: as §4

[8] = molecular target: T1, PD-L1 expressed on CHO cells; experiment: flow cytometry on PD-L1 expressing Flp-In CHO cells
Method: For cell surface binding studies, PD-L1 expressing Flp-In CHO (Thermo Fisher Scientific) cells were generated and mixed at a 50:50 ratio. One million cells were stained with 1 μg of the disclosed anti-PD-L1 recombinant antibodies in 200 μl of MACS Buffer (DPBS with 0.5% bovine serum albumin and 2 mM EDTA) for 30 minutes at 4 C. Cells were then co-stained with anti-human irrelevant target-APC and anti-human IgG Fc-PE antibodies for 30 minutes at 4 C. An anti-human PD-L1 antibody was used as a control for these mixing experiments and cell viability was assessed with DAPI. Flow cytometry analysis was conducted on a BD Influx at the Stanford Shared FACS Facility and data was analyzed using FlowJo.

T1 sequence (Q9NZQ7 19-290 limits assumed): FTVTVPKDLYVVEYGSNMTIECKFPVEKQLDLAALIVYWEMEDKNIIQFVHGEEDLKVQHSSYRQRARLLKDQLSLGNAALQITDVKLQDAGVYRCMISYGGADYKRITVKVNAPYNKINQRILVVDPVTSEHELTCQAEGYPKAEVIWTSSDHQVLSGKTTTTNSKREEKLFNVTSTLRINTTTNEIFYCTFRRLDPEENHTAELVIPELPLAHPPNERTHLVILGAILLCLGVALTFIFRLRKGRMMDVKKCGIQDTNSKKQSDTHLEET
T4 sequence (Q9NZQ7 19-239 limits assumed): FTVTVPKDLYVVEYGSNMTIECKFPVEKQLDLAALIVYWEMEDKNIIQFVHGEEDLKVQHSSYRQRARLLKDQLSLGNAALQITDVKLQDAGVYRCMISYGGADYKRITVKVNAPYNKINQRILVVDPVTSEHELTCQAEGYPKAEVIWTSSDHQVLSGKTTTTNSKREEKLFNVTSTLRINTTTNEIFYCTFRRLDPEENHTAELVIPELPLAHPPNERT
T2 sequence (Q9NZQ7 19-239 limits assumed): as above

| Binder | Promega assay antagonist (EC50, ug/mL) [1] | Kd [2] | Kd [3] | koff [3] | kon [3] | Kd [4] | EC50 [5] | Kd [6] | Kd [7] | koff [7] | kon [7] | binding result [8] |
| --- | --- | --- | --- | --- | --- | --- | --- | --- | --- | --- | --- | --- |
| antibody A4 (antibody, V domains shown, Tested as full-length mAb made in CHO cells; also called L4H4) VH: QVQLVESGGGVVQPGRSLRLSCAASGFTFSNYGMHWVRQAPGKGLEWVAVIWFDGNTKYYTDSVKGRFTISRDNSKNTLYLQMNSLRAEDTAVYYCARDITMVPMDVWGQGTTVTVSS VL: AIQMTQSPSSLSASVGDRVTITCRASQDIRNDLGWYQQQPGKAPKLLIYAASSLQSGVPSRFSGSGSGTDFTLTISSLQPEDFATYYCLQDYNYPPTFGQGTKVEIK | 0.198 µg/mL | 6.4 nM | 6.25 nM | 0.001 s⁻¹ | 160000 M⁻¹ s⁻¹ | 11.3 nM | 1.25 µg/mL |  |  |  |  |  |
| antibody A8 (antibody, V domains shown, Tested as full-length mAb made in CHO cells; also called L8H8) VH: QVQLVQSGAEVKKPGASVKVSCKASGYTFTSYGISWVRQAPGQGLEWMGWISAYNGSTNYAQKLQGRVTMTTDTSTSTAYMELRSLRSDDTAVFYCARDDRIAVADYYYYFGMDVWGQGTTVTVSS VL: DIQMTQSPSSLSASVGDRVTITCRASQGIRNDLGWYQQKPGKAPKRLIYAASSLQSGVPSRFSGSGSGTEFTLTISSLQPEDFATYYCLQHNSYPYTFGQGTKLEIK | 0.621 µg/mL | 22 nM | 22.8 nM | 0.013 s⁻¹ | 570000 M⁻¹ s⁻¹ | 18.9 nM | 0.46 µg/mL |  |  |  |  |  |
| antibody A7 (antibody, V domains shown, Tested as full-length mAb made in CHO cells; also called L7H7) VH: QVQLQESGPGLVKPSETLSLTCTVSGGSISSYYWSWIRQPPGKGLEWIGYIFYSGSTNYNPSLKSRVTISVDTSKNQFSLKLSSVTAADTAVYFCARDNWHDGGVDYWGQGTLVTVSS VL: EIVMTQSPTTLSLSPGERATLSCRASQSVSSSYLSWYQQKPGQAPRLLIYGASTRATGIPARFSGSGSGTDFTLTISSLQPEDFAVYYCQQDYNLRTFGQGTKVEIK | 0.151 µg/mL | 17 nM | 16.7 nM | 0.0095 s⁻¹ | 570000 M⁻¹ s⁻¹ | 23 nM | 1.88 µg/mL |  |  |  |  |  |
| antibody A25 (antibody, V domains shown, Derived from a mutagenesis screen of A1; Tested as full-length antibody; also called L25H25) VH: QVQLVQSGAEVKKPGASVKVSCKASGFTFTSYDINWVRQATGQGLEWMGWMHPKSGITGYAQKFQGRVTMTRNTSISTAYMELSNLSSEDTAVYFCARYNYVSGSYDYWGQGTLVTVSS VL: EIVMTQSPATLSLSPGERATLSCWASQSVSSSYLSWYQQKPGQAPRLLIYGASTRATGIPARFSGSGSGTDFTLTISSLQPEDFAVYYCQQDYYLPYTFGQGTKLEIK | 0.063 µg/mL |  |  |  |  |  | 0.26 µg/mL | 2.4 nM | 2.44 nM | 0.000809 s⁻¹ | 331000 M⁻¹ s⁻¹ |  |
| antibody A5 (antibody, V domains shown, Tested as full-length mAb made in CHO cells; also called L5H5) VH: QVQLVESGGGVVQPGRSLRLSCAASGFAFSSYGMHWVRQAPGKGLEWVALIWFDGNNKFYADSVKGRFTISRDNSKNTLYLQMNSLRAEDTAVYYCARDTTAASFDYWGQGTLVTVSS VL: EIVMTQSPATLSLSPGERATLSCRASQSVSSTYLSWYQQKPGQAPRLLIFGASTRATGIPARFSGSGSGTDFTLTISSLQPEDFAVYYCQQDYNLPPTFGPGTKVDIK | 0.0985 µg/mL | 15 nM | 14.6 nM | 0.0086 s⁻¹ | 590000 M⁻¹ s⁻¹ | 8.6 nM | 0.97 µg/mL |  |  |  |  |  |
| antibody A22 (antibody, V domains shown, Tested as full-length mAb made in CHO cells; also called L22H22) VH: QVQLVQSGAEVKKPGASVKVSCKASGYTFTSYGISWVRQAPGQGLEWMGWISAYNGNTNYAQKLQGRVTMTTDTSTSTAYMELRSLRSDDTAVYYCARGFYYGSWYFDYWGQGTLVTVSS VL: DIQMTQSPSSLSASVGDRVTITCRASQGISSWLAWYQQKPEKAPKSLIYAASSLQSGVPSRFSGSGSGTDFTLTISSLQPEDFATYYCQQYNSYPPTVGGGTKVEIK |  |  |  |  |  | 38.5 nM |  |  |  |  |  | binds |
